Assay results reported in patent publication US20260132208A1 (DOMAIN THERAPEUTICS, published 2026).
“And” between values parts separate entries of the source, which are not always exact repeats. Equal entries are not always repeated.

B1: Ref #2 (antibody, human IgG1, V domains shown)
VH: QVQLVQSGAEVKKPGASVKVSCKASGYTFTSYYMHWVRQAPGQGLEWMGIINPSGGSTSYAQKFQGRVTMTRDTSTSTVYMELSSLRSEDTAVYYCARAVRNRFRFDYWGQGTLVTVSS
VL: QSALTQPASVSGSPGQSITISCTGTSSDVGSYNLVSWYQQHPGKAPKLMIYEVSKRPSGVSNRFSGSKSGNTASLTISGLQAEDEADYYCSSYAGSSTFVVFGGGTKLTVL
B2: anti-CCR8 mAb 1-7 (antibody, V domains shown)
VH: QVHLVETGGGLVRPGNSLKLSCVTSGFTLSNYRMHWLRQPPGKRLEWIAVIKVKSDNYGANYAESVKGRFTISRDDAKSSVYLQMNRLREEDTATYYCSRPDGFSPFVYWGQGTLVTVSA
VL: DIKMTQSPSSMYASLGERVTITCKASQDINSYLSWFQQKPGKSPKTLIYRANRLVDGVPSRFSGSGSGQDYFLTISSLEYEDMGIYYCLQYGEFPPTFGAGTKLELK
notes: Murine hybridoma mAb
B3: anti-CCR8 mAb 1-12 (antibody, V domains shown)
VH: EVQLVETGGGLVQPKGSLKLSCAASGFTFNANAMNWVRQAPGKGLEWVARIRSKSNNYATYYADSVKDRFTISRDDSQSMLYLQMNNLKTEDTAMYYCVRGSDNYIFYAMDYWGQGTSVTVSS
VL: DIVMTQAAPSVPVTPGESVSISCRSSKSLLHSNGNTYLYWFLQRPGQSPQLLIYRMSNLASGVPDRFSGSGSGTAFTLRISRVEAEDVGVYYCMQHLEYPFTFGGGTKLEIK
notes: Murine hybridoma mAb
B4: Ref #3 (antibody, human IgG1, V domains shown)
VH: EVQLVESGGGLVQPGGSLKLSCAASGFTFNTYAMNWVRQASGKGLEWVARIRSKANNYATYYADSVKDRFTISRDDSKNTLYLQMNNLKTEDTAVYYCVRDRSRGEDYAMDYWGQGTLVTVSS
VL: DIVMTQSPLSLPVTPGEPASISCRSSKSLLHSNANTYLYWFLQKPGQSPQLLIYRMSNLASGVPDRFSGSGSGTAFTLKISRVEAEDVGVYYCMQHLEYPFTFGQGTKLEIK
B5: anti-CCR8 mAb 1-13 (antibody, V domains shown)
VH: EVQLVETGGGLVQPKGSLKLSCAASGFTFNTNAMNWVRQAPGKGLEWVARIRSKSNYYATYYADSVKDRFTISRDDSQSMLYLQMNNLKTEDTAMYYCVRGREMGNYYSMDYWGQGTSVTVSS
VL: DIVMTQAAPSVPVTPGESVSISCRSSKSLLHSNGNTYLYWFLQRPGQSPQLLIYRMSNLASGVPDRFSGSGSGTAFTLRISRVEAEDVGVYYCMQHLEYPFTFGSGTKLEIK
notes: Murine hybridoma mAb
B6: anti-CCR8 mAb 1-14 (antibody, V domains shown)
VH: QVQLVETGGGLVRPGNSLKLSCVTSGFTFSNYRMHWLRQPPGKRLEWIAVIKVKSDNYGANYAESVKGRFTISRDDSKSSVYLQVNRLREEDTATYYCSSPTYPGSSGFAYWGQGTLVTVSA
VL: DIQMTQTTSSLSASLGDRVTISCRASQDISNYLNWYQQKPDGTVKLLIYYTSRLHSGVPSRFSGSGSGTDYSLTISNLEQEDIATYFCQQGNKFPPTFGGGTKLEIN
notes: Murine hybridoma mAb

How the values were obtained:
[1] = target: human CCR8 with a SNAP-tag at the N-terminus (human, UniProt P51685 1-355, SNAP-tag labelled covalently with Lumi4-Terbium); test: cell-based or functional assay
human CCR8 [2] = target: T1, human CCR8 (human, UniProt P51685 1-355); test: cell-based or functional assay
human CCR8 [3] = target: T1, human CCR8; test: cell-based or functional assay; remark: listed apart in the source
human CCR8 [4] = target: T1, human CCR8; test: flow cytometry, hCCR8-transfected CHO-K1 cells
Procedure: Briefly, 1.10⁵ cells per well in a 96 well plate were incubated with a dilution of unconjugated anti-CCR8 mAb at 10 μg/mL then diluted at 1/3.33, 4 dilution points (during 30 min at 4° C.). In human activated T cells model, prior to mAb incubation, cells were first incubated with 200 nM of hCCL1 (R&D Systems, Minneapolis, MN, USA) or buffer PBS (Invitrogen by Thermofisher Scientific, Illkirch-Graffenstaden, France) supplemented by 2% Fetal Bovine Serum (Invitrogen by Thermofisher Scientific, Illkirch-Graffenstaden, France) and 2 mM EDTA (Invitrogen by Thermofisher Scientific, Illkirch-Graffenstaden, France) during 1 hour at 4° C. To determine EC50 value, 8 concentrations of anti-CCR8 mAb were tested. Unbound antibodies were washed away with PBS (Invitrogen by Thermofisher Scientific, Illkirch-Graffenstaden, France) supplemented by 2% Fetal Bovine Serum (Invitrogen by Thermofisher Scientific, Illkirch-Graffenstaden, France) and 2 mM EDTA (Invitrogen by Thermofisher Scientific, Illkirch-Graffenstaden, France). Subsequently, cells are centrifuged (5 min at 400 g) and bound antibody is detected with F(ab′)2-Goat anti-Mouse IgG (H+L) Cross-Adsorbed Secondary Antibody, Alexa Fluor 488 (dilution 1/500) (Invitrogen by Thermofisher Scientific, Illkirch-Graffenstaden, France) or with F(ab′)₂-Goat anti-Human IgG Fc Secondary Antibody, PE (Invitrogen by Thermofisher Scientific, Illkirch-Graffenstaden, France) (dilution 1/1000) at 4° C. for 30 min. Detection reagent is washed away and cells are centrifuged (5 min at 400 g) and resuspended in 30 μL PBS. Bound detection antibody is quantified on a MacsQuant16 (Miltenyi, Gladbach, Germany) (B1 or B2 channel, 5000 events per acquisition). During the experiment, the respective isotype mAb controls (mouse IgG1, mouse IgG2a, mouse IgG2b, mouse IgG3 or human IgG1) (Biolegend, Amsterdam, The Netherlands) are included to exclude any unspecific binding events. EC50 values were determined via nonlinear fit “log (agonist) vs.response—Variable slope (four parameters)” function of Graphpad prism. EC50 values were not constantly determined in the same experiments.

human CCR8 [5] = target: T1, human CCR8; test: cell-based or functional assay; remark: listed apart in the source
human CCR8 [6] = target: T1, human CCR8; test: flow cytometry, inhibition of hCCL1-AF647 (10 nM) binding to hCCR8-CHO cells
Procedure: The hCCR8 transfected CHO cell line was dispatched at a density of 1.105 per well in a 96-well plate. Cells were incubated for 30 min at 4° C. with or without anti-CCR8 mAb tested at 10 μg/mL then diluted at 1/3. Unbound antibodies were washed away with PBS (Gibco, Villebon-sur-yvette, France) supplemented by 2% Fetal Bovine Serum (Invitrogen by Thermofisher Scientific, Illkirch-Graffenstaden, France) and 2 mM EDTA. […] After washing unbound ligands, CCL1 bound detection is quantified on a MacsQuant16 (Miltenyi, Gladbach, Germany) (R1 channel, 5 000 events per acquisition).
For IC₅₀ determination, a concentration response curve is performed using 8 concentrations of mAb. Curves are fitted and IC₅₀ of CCL1 binding blocking activity is calculated using the sigmoidal dose-response (variable slope) model on GraphPad Prism 9 (GraphPad Software, San Diego, CA, USA).

human CCR8 [7] = target: T1, human CCR8; test: cell-based or functional assay; remark: listed apart in the source
pm5 = target: T2, pm5 (Y15 and Y17 sulfated; Y16 not sulfated); test: ELISA on coated peptide [cont.]
T2 construct: also called sulfated CCR8 N-terminal peptide pm5
T2 sequence (peptide, as listed by the source): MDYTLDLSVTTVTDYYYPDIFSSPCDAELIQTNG
Procedure: (§1) The specific binding properties of antibodies were evaluated by ELISA with coated CCR8 related peptides (500 ng/ml) in carbonate/bicarbonate buffer. Different peptides were used as described in Table 1 (see Example 1). Each anti-CCR8 mAb was tested at 1 μg/mL then diluted at 1/10. After an incubation at room temperature during 90 min, unbound mAbs were removed by washings. […] After washings, 3,3′,5,5′-tetramethylbenzidine (TMB) (Interchim, Montluçon, France) was added for 15 min. Then the optical density (OD) was determined by using a multiplate reader (Tecan, Lyon, France) and correlated with mAb reactivity on the panel of coated peptides.

pm8 = target: T3, pm8 (Y15, Y16 and Y17 sulfated); test: ELISA on coated peptide [cont.]
T3 construct: also called sulfated CCR8 N-terminal peptide pm8
T3 sequence (peptide, as listed by the source): as above
Procedure: as §1

pm6 = target: T4, pm6 (Y16 and Y17 sulfated; Y15 not sulfated); test: ELISA on coated peptide [cont.]
T4 construct: also called sulfated CCR8 N-terminal peptide pm6
T4 sequence (peptide, as listed by the source): as above
Procedure: as §1

pm3 = target: T5, pm3 (Y17 sulfated; Y15 and Y16 not sulfated); test: ELISA on coated peptide [cont.]
T5 construct: also called sulfated CCR8 N-terminal peptide pm3
T5 sequence (peptide, as listed by the source): as above
Procedure: as §1

Binder | % hCCR8 internalization with CCL1 300 nM, mAb 1 µg/ml (HTRF) [1] [%] | % hCCR8 internalization with CCL1 300 nM, mAb 10 µg/ml (HTRF) [1] [%] | IC50 of CCL1-induced hCCR8 Gi2 signaling (BRET, HEK-293) (human CCR8 [2]) | IC50 of CCL1-induced hCCR8 Gi2 signaling (BRET), pH 6.5 (human CCR8 [3]) | IC50 of CCL1-induced hCCR8 Gi2 signaling (BRET), pH 7.4 (human CCR8 [3]) | % positive cells (human CCR8 [4]) [%] | MFI fold change to isotype ctrl (human CCR8 [4]) [fold] | extrapolated top plateau of hCCL1 curve with 5 µg/mL mAb, protocol #3 (human CCR8 [5]) | IC50 (human CCR8 [6]) | residual hCCL1 (100 nM) Gi2 response, protocol #2, mAb 0.08 µg/mL (human CCR8 [7]) [%] | residual hCCL1 (100 nM) Gi2 response, protocol #2, mAb 0.4 µg/mL (human CCR8 [7]) [%] | residual hCCL1 (100 nM) Gi2 response, protocol #2, mAb 10 µg/mL (human CCR8 [7]) [%] | residual hCCL1 (100 nM) Gi2 response, protocol #3, mAb 0.05 µg/mL (human CCR8 [7]) [%] | residual hCCL1 (100 nM) Gi2 response, protocol #3, mAb 0.5 µg/mL (human CCR8 [7]) [%] | residual hCCL1 (100 nM) Gi2 response, protocol #3, mAb 5 µg/mL (human CCR8 [7]) [%] | binding result (pm5) | binding result (pm8) | binding result (pm6) | binding result (pm3)
B1 | 100 | 90 |  |  |  |  |  |  |  |  |  |  |  |  |  |  |  |  | 
B2 |  |  | 0.018 µg/mL and 0.117 nM | 0.011 µg/ml and 0.073 nM | 0.007 µg/ml and 0.047 nM | 71.3 | 6.26 | 526000 % of hCCL1 (100 nM) | 0.89 µg/mL and 5.7 nM | 73 | 51 | 24 | 69 | 38 | 30 | binds | binds | binds | binds
B3 |  |  | 0.015 µg/mL and 0.099 nM | 0.031 µg/ml and 0.208 nM | 0.017 µg/ml and 0.115 nM | 67.8 | 6.11 | 805000 % of hCCL1 (100 nM) | 0.85 µg/mL and 5.72 nM | 99 | 85 | 68 | 86 | 75 | 48 | binds | binds | binds | binds
B4 | 95 | 103 |  |  |  |  |  |  |  |  |  |  |  |  |  |  |  |  | 
B5 |  |  | 0.01 µg/mL and 0.067 nM | 0.019 µg/ml and 0.125 nM | 0.011 µg/ml and 0.075 nM | 64.7 | 5.63 | 149 % of hCCL1 (100 nM) | 0.36 µg/mL and 2.42 nM | 60 | 35 | 21 | 69 | 39 | 38 | binds | binds | binds | binds
B6 |  |  | 0.01 µg/mL and 0.066 nM | 0.014 µg/ml and 0.095 nM | 0.004 µg/ml and 0.026 nM | 83 | 17.6 | 305000 % of hCCL1 (100 nM) | 0.28 µg/mL and 1.85 nM | 93 | 89 | 48 | 92 | 68 | 50 | binds | binds | binds | binds
